Results as given in the DeepSol protein solubility set.

Test: soluble on expression in E. coli; label from the status in PepcDB or PDB records

Row | Sequence | soluble on expression in E. coli
1 | MTKYIFVTGGVVSSLGKGITAASLGRLLKNRGLNVTIQKFDPYINVDPGTMSPYQHGEVFVTDDGAETDLDLGHYERFIDINLNKYSNVTTGKIYSSVLQKERRGEYLGGTVQVIPHITNEIKERVYRSGRETNADVVITEIGGTVGDIESLPFLEAIRQIKSDIGRDNVMYIHCTLIPYLKAAGEMKTKPTQHSVKELRSLGIQPNIIVVRTEMPVSQDMKDKLALFCDIDTKAVIEARDADTLYAVPLSLQEQNMDQIVCDHLKLDNPAADMTEWTALVEKVRNLSKKTKIALVGKYVELQDAYISVVEALRHAGYSFDTDVEVKWVNAEHVTAENVQELVGDTDGILVPGGFGDRGVEGKIVAIQYARENKVPFLGICLGMQLASIEFARNVLGLEGANSSEINPDTPYAIIDLLPEQKDVEDLGGTLRLGLYPCKLSEETNAYNAYNEPVVYERHRHRYEFNNQFRPDMEKAGFVFSGTSPDGRLVEIIELKDHPWFVAAQFHPELVSRPNRPQPLFHDFVKASLTNKESK | not soluble
2 | LGSLLEVAIPKPGNVSRYKDFEDLTFYHFLFGNTALIGPYFEATERGILLKEGKINESEVGIGELIRMAVAATKKYQDANPNFGIIVLSIPLIVSLSSGASIEDAGKMATRLISKSTPLDTVELYKAIRIANPKGIPRGVKYDVYSDTSFEDLVRDGINLYKLAEISCERELVFCEWLNNYDLTYETLKLLENNLEKEDLEGKVRKTFVVLLSKYEDTLIIRKAGIQEAKKVKEMATQLLKNKITEEEFERFMYEKRDLRNPGSLADIMATAL | not soluble
3 | MSGISIIENAVLKPTKREVAEQWLGYFEHIGSYRFVDPDGQVGIESLIGFDLDRRLVQMPVTYRSAEFDAEHTLTTMDHSVLGTRYVSNAMGDPVAVREYIRVILEADNGAQRSDGKVSVLDVRGSGNREEKLTLGEVRILEATRQRAVGYVRIDGTLRGFVLRVPHLLVPENSPRLGHNISPMRLNGSVVMSPKTVLIAAELSWHDI | not soluble
4 | GMAFMEKIFPDILEAIRNEEIIKESKKIPMPYFGLFALVIFDKVKELGSETSLYEIGEEFGKMLSPKNIEELKKIFKLMNFGDLEIDENKILLKNPPYKIKLSNPPYQWVSKEEPIHDFIAGILAGCLEEIFYYYFVVNEVECVSQGKDKCVFEVKEVDELNK | soluble
5 | MSLRLDKFIAENVGLTRSQATKAIRQSAVKINGEIVKSGSVQISQEDEIYFEDELLTWIEEGQYFMLNKPQGCVCSNDDGDYPTIYQFFDYPLAGKLHSAGRLDVDTTGLVLLTDDGQWSHRITSPKHHCEKTYLVTLADPVEENYSAACAEGILLRGEKEPTKPAKLEILDDYNVNLTISEGRYHQVKRMFAALGNKVVGLHRWKIGDVVLDESLEEGEYRPLTQSEIEKLVEGGSHHHHHH | soluble
6 | MGHHHHHHSHMACYIYQLPSWVLDDLCRNMDALSEWDWMEFASYVITDLTQLRKIKSMERVQGVSITRELLWWWGMRQATVQQLVDLLCRLELYRAAQIILNWKPAPEIRCPIPAFPDSVK | soluble
7 | MGSDKIHHHHHHMITHQDLKQLQSLTKVPALSILLPTHRTSPDNKQDPILVKNLVSEATKRLDKEFTSRQLEPLLKQLETLVSEIDYPHTLDGLALYVSHDFAKLYYLPFPVPARVVIDQTFATRDLVYGRHREHRYWVLLLSQASTRLLAGTGETLEEVNDENFPMQMTGPGATTPLPYETDSSYRDDRYRRFFQQVNSALTLYENDSLPLIVGGVERQISFFQEVSQNTQAMSPRGYAYAGTLRGNFDRATIHELTPQVWSIMQSVQEAQQAEALQALDDAMGTQSVVSTIGEVWRLAHEGRGKLLLVEKNYHVPAILTEDGRFELVDQPGGTDVMDDAVDEIIEVVLAKGGKVAIVDDEVLSIYQRIALIFRY | not soluble
8 | MGSDKIHHHHHHMTEKADGKARIVRLGQILRIFMEKEKVSSTWLSRQFQTTPRTIQRDLLLLKKSGFPLHEIRKGIYQLHKDLVRNLEVFDDTELALVVALKNIVGQLGRPFQTAAGNILDHLYDCVKSMPVFVKIDDAVPLDSALLNRILQAILKKRTVSFQYAAPHGSHAVNLEPYRVVYFSGFWYLIGNEPSTGILKRYALDKIENFKSSRQCFTAIPSDLDDVLRQSANIWFTEDANIEITVHIDARVSDYFKRRKMYPTQEIKEERPDGSLVVTFRVGNYEAIRDILKSWIPHFVILEPEDFRVSMLNDIKGWVEKQEQQSCLDNISF | not soluble
9 | MSTNKRRTIQIEITEEHFKDLEKALEALKGTQLPFSTTVEQFVELILSNYVATSNKISNLAESGFDVASIQQELEKIGSAAGADDALKSFLDELLKTSQKSFSNTKDGKKNDDDNNSSSKS | soluble
10 | MEVTNGLNLKDTELRLGLPGAQEEQQLELSCVRSNNKRKNNDSTEESAPPPAKTQIVGWPPVRSNRKNNNNKNVSYVKVSMDGAPYLRKIDLKMYKNYPELLKALENMFKFTVGEYSEREGYKGSGFVPTYEDKDGDWMLVGDVPWDMFSSSCQKLRIMKGSEAPTAL | not soluble
11 | MPPFYKRLHRKKDGRELFLYGLMPLEGPPLPEDAEPFRPAPHLRYHPLRGEWVVYAAHRQGRTFLPPKEHCPLCPSREGGFPTEIPFPSFQVAVFENRFPSFVEEAPPPPEGLPVPAGRALGRCEVVVYTPAHTGSLATLTEEERLLLAWAWRDRYEALYALPGVRFVMPFENRGEAVGVTLHHPHGQIYAYPFVPPVLERESQAFRERPVLLRLFPSLGPYVVDEEEGFLAFVPPFARYPFEVWVAPVERHPGPWTFSEGEMAAFARLLGRVVARYDALFGEPFPYVMVFHAAPLGEEATFHFHVEFYPPRRTRDKLKFLAGTELGAGTFVVDALPEETAKALRAALP | soluble
12 | MENNENHEKLNGVLRKFLGDAFTLDGKEGGLNMEKLREAIKKEKPIMNILLMGATGVGKSSLINALFGKEVAKAGVGKPITQHLEKYVDEEKGLILWDTKGIEDKDYENTLESIKKEMEDSFKTLDEKEAIDVAYLCVKETSGRVQERERESYLEHHHHHH | not soluble
13 | MAKNGGFSLFAKKEKRFIFEGRHSASDKLVNGEVSAFTEEEARKKLAKRGIRPLQITRVKTSSKRKITQEDITVFTRQLSTMIKAGLPLMQAFEIVARGHGNPSMTEMLMEIRGEVEQGSSLSRAFSNHPKYFDRFYCNLVAAGETGGVLESLLDKLAIYKEKTQAIRKKVKTALT | not soluble
14 | MKLERVTVKNFRSHSDTVVEFKEGINLIIGQNGSGKSSLLDAILVGLYWPLRIKDIKKDEFTKVGARDTYIDLIFEKDGTKYRITRRFLKGYSSGEIHAMKRLVGNEWKHVTEPSSKAISAFMEKLIPYNIFLNAIYIRQGQIDAILESDEAREKVVREVLNLDKFETAYKKLSELKKTINNRIKEYRDILARTE | soluble
15 | MGKGDSIIVAVRVRPFNDREKTRNCKLVIEMPDEETTVIRDPKTNDEKRFTYDHSYWSHDGFSEKKNGYLEPTDPHYADQRRVFEDLGRGVLANAWAGYNCSLFAYGQTGSGKSYSIVGFKNNKGIVPIVCEELFKQIADNKKKNMQFEVFVSMMEIYCEKVRDLLSSTPPPKGGLKVREHPKNGFYVENLTTVPVNSFKEIEAKIEEGTKSRTIAATQMNATSSRAHTIVKITFNQKSSKQAGGTSMKKSEINLVDLAGSERQSAAGTEGDRLKEGIVINQSLTTLGRVIKALHDSQKAKSGKKTQIPYRDSVLTCLLKNALGGNSKTIMIAAISPADINFEETLSTLRFADRAKSIKTNAVVNENQTERALRELREENLRLQSQIQGGTAGDASNEEIEKLRRQLAENQKEMEEMEKSWQQKIAEEAAKHASGASEKVEMEAKKKKMCHLWNLNEDPALTNVIVHFIPVGESVVGNKPTSSGNFIQMSGLSILPQHVTLKNDGNNQIHLSPCSEDLDIFINGKPVHGETQLQQNDRVFFGGNHLYVFNNPTKKGIRTDITYENAQAEIAQNHAAALGNRGLGGGSKRDLILEEELMSTLPLVQRANAMATELGRNVKFEIVLVSPEMRGLTSGLTEIWVKVHNISEDTYFLWEKSRFMNRYYGMQEMYEAKQDGSEDWNMPKERDPFYEPPDSPVFIASSVVFLQSLAYLIDVEEQFPIVDLSGQEIGLLTVGLSPCSTTGKELRGEYVEDPDQLIGKNIAFKVKVISAVGLPRRILKSNCKYRFFGSKKMTTTATVSGNTPAYGHEETFQFKPVTKEVADYLANSNLYITFWGTQRPRGASSRKNSISTIGSNEAREGPNKAKRVERLVHQAKTSENRNISVKALETVLKGVDDNENRKTRKQSMKKAGSTTIKSRSGSKKPKAK | not soluble
16 | MNISIRAETPGDIDAIAHLTEAAFRNETHSSHTEQYIVDALRRAGALTLSLVAEANGQVIGHIAASPVTIDGEAGDWYGLAPLSVAPGRQRQGLGSQLVRRLLTELRLLPAGGCVVLGEPTYYSRFGFRVESGLALPGVPAEYFQAQSFSGRMAQGIVAFHAAFDASG | not soluble
17 | MFSPDTNSEFYDDFYTKYNTNMAPTTSTFNAQPRLSLDSGLGLTNDSFYSTDLNETHLMDISAGNASTSFQSQPPPQLESSPPTKWARIRTPPNRKKKISHEGPNQEALPPGFNLFSPPSRKKIKTAFSSPPPKSMKTPDSLRKSIRISSPSPFKVTFSKTPLKLSNNENVTGIHIGRSGTYYNKQVTGSASKRCLLPSKPDGFTFLGSPGNSDVLDFPLQTTFEGFGDLDTPAKINAALEVNNDDSMDYYQYAGMIETSSSLATYTNSTGPLVENHARNLKSVPISRTASRNLMKISRKSVEEPVPEPQAVHVEPVIEKPTKISAKKEKEQKKSAAKEAALKEAKEKEMRIWKLAPFETPKKEVPLYSGRWLVISTGRTLAQQELFSDAKSFFKANPPPAPRAPQAPELASGPRRIPTIQRVTLFKHRYRSPRD | not soluble
18 | MGSDKIHHHHHHMTLLIVGATGTLGRQVARRAIDEGYKVRCLVRSSKKAAFLKEWGAELVPGNLRYPDTLAAALVGVTQVIDASTSRPTDSLSIKQVDWEGKVALIQAAKAAGVERFIFFSILDADKYPEVPLMEIKRCTELFLAESGLNYTILRLAGFMQGLIGQYGIPILEGQPVWVTGNSSPIAYMDTQDIAKFAIRALSVPETENQAFPVVGTRAWSAEEIINLCERLSGKDARVTRMPISLLRAVRGLMRSFQWGWNVADRLAFTEVLASGKQLNASMDEVYTVFGLDPQQTTTLESYLQEYFSRIMKKLKEVDYQKNKNKKQKPKKTPFKQSSKANSQ | not soluble
19 | MGHHHHHHSHMNSAEQTVTWLITLGVLESPKKTISDPEGFLQASLKDGVVLCRLLERLLPGTIEKVYPEPRSESECLSNIREFLRGCGASLRLELLFPPSQPPQHLVTTILLSASTFDANDLYQGQNFNKVLSSLVTLNKVTADIGLGSDSVCARPSSHRIKSFDSLGSQSLHTR | soluble
20 | MQEHFHFTTDPAKLQKQYAAIFCFVSAQLSLIQMYLHRRNRHLVKQEDEVVMAVHLLGKLLGFSSERAWHRFVTGNLFTNGSFLERSRYNRRCRALGFAVKWIRHELAKRGQHHAYAVVDSLPLPLCHPARMQRVKRFRGIADMGYCASKKQWYYGFKLHLQVTHQGLAMGYVVTEASCHDVKAAETVMTQIPHPYNFGDKGYISRALREKLYEEHQAAFWTPSRHNQKHGPSKAWEEWIRKKRKVIETVFSILVDQYRITDIRANSIAGFEVALDGILVAYSLVTLGLVER | not soluble
21 | KAHGNFPVYRNTDVTFLPTGEAFFEKMKEELLKAKKYIFLEFFIIDEGIMWGEILSILEQKVEEGVEVRILYDGMIEITKLSFDYTKRLEKIGIKAKAFSPISPFISTYYNYRDHRKIVVIDGVVGMTGGVNLADEYINHIELFGHWKDSGIMLKGKAVDSFLLLFLQMWSITEEKMLVAPYLGVHDDLVENEGYVIPYGDSPLDTDKVGENV | not soluble
